In paper PMC9620489, “Insights into the structure and function of the histidine kinase ComP from Bacillus amyloliquefaciens based on molecular modeling” (Bioscience Reports, 2022):

Target: T1, ComPS (residues 563-763 of the histidine kinase ComP from Bacillus amyloliquefaciens Q-426) (Bacillus amyloliquefaciens Q-426)
T1 construct: No removal of the 6xHis tag is described; The forward primer F-BaComPS has an NcoI site followed by AT, which may add Met-Asp before R563; also called BaComPS; truncated ComPS protein; source: E. coli BL21 (RIL), pPROEXHTa vector, purified (Ni-NTA)
Assay: MST; microscale thermophoresis of ComPS with ComA; labelled partner, buffer and temperature not told in the text shown (curve in Supplementary Figure S8)
Details: both partners purified

- Kd: 78 µM
B1: response regulator ComA (natural protein)
chain: MKKILVIDDHPAVMEGTKTILETDTNLSVDCLSPDASEQFVLRHDFSAYDLILMDLNLGDDISGIELSKKILKENPLCKIIVYTGYEVEDYFEESIRAGLHGAISKTESKEKIMQYIYHVLNGQILVDFSYFKQLMTQQKTKTSSSPQSEQDRLTPRERHILQEVEKGLTNQEIADALHLSKRSIEYSLTSIFNKLNVGSRTEAVLIAKSDNVL
